Values quoted from earlier work as cited in publication PMC10530501.
pKd: −log10 of the molar value.

Tests used:
TLR4 (Homo sapiens) = TLR4 (Homo sapiens) (UniProt O00206); assay: SPR
C1q (Homo sapiens) = C1q (Homo sapiens) (UniProt P02745)
UniProt P02745, sequence (P02745 23-245, chain 1 of 3): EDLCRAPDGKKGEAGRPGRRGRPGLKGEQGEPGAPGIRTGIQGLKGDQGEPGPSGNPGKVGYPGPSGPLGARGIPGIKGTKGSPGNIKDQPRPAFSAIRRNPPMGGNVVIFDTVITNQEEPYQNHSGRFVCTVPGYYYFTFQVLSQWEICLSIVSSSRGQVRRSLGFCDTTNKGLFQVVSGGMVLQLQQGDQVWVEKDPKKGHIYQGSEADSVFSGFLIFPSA
UniProt P02745, sequence (P02746 28-253, chain 2 of 3, further chain): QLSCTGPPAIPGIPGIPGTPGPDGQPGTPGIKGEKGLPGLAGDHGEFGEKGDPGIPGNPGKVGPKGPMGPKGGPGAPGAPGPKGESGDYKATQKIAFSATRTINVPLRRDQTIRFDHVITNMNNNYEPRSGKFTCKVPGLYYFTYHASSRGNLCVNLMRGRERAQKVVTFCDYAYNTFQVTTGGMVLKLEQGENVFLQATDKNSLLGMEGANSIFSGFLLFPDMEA
UniProt P02745, sequence (P02747 29-245, chain 3 of 3, further chain): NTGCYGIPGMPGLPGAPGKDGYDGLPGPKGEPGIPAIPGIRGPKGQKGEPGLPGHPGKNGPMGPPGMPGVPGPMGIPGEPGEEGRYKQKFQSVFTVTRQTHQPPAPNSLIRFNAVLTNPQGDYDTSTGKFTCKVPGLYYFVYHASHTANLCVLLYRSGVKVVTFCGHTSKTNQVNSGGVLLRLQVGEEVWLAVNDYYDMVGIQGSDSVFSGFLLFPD

UniProt O00206, sequence (O00206 24-631): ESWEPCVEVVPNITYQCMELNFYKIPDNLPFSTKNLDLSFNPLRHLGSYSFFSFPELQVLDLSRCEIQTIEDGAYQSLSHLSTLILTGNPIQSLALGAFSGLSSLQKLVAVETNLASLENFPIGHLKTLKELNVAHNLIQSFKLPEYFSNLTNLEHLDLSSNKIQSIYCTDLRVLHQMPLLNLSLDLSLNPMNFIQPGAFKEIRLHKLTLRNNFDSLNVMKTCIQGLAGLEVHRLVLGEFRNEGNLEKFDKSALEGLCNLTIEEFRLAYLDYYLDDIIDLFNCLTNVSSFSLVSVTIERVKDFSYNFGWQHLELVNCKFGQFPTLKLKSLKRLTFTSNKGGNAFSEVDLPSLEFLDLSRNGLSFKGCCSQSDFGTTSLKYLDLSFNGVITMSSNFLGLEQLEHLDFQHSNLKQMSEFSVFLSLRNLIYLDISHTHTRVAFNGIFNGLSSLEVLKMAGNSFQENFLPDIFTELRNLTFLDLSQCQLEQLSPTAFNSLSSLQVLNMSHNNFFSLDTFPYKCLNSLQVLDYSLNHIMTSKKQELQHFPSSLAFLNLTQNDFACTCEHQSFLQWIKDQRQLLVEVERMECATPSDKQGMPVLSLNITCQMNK

pKd (TLR4 (Homo sapiens)) | pKd (C1q (Homo sapiens)) | Substance
7.69 | – | pCTS-L (from UniProt P07711)
– | 6.70 | HMGB1 (from UniProt P09429)
